# In patent US9567577B2, “Expression vector comprising a polynucleotide encoding a modified glutamine synthetase and a method for preparing a target protein employing the same” (ARES TRADING S.A., priority 2012, dated 2017):
# Test system: CHO K-1 cells
# Assay: TNFR-Fc expression level by ELISA of culture broth of CHO K-1 cells transfected with the expression vectors
# Format: cell-based
# Conditions: inferred from TNFR-Fc expression under MSX
# Description: In order to compare the productivity of TNFR-Fc fusion protein between the GS and DHFR gene expression systems, each of the expression vectors constructed in Example 4 was introduced into CHO K-1 cells so as to prepare each transformant.
# In detail, CHO K-1 cells were cultured in a DMEM/F12 medium supplemented with 10% FBS, and 3 to 4×10^5 cells/well were inoculated into a 6 well-plate, followed by cultivation overnight. When the cells reached 80 to 90% confluence, each of the expression vectors was introduced thereto.
# To achieve this, 4 μg of each of the expression vectors constructed in Example 4 and 250 μl of Opti-MEM were mixed with each other, and separately, 10 μl of Lipofectamine 2000 (Invitrogen) and 250 μl of Opti-MEM were mixed with each other. Then, each mixture was left at room temperature for 5 minutes. Subsequently, the mixtures were mixed with each other, and left at room temperature for 20 minutes.
# Thereafter, the culture medium in the 6-well plate was replaced with 2 ml of Opti-MEM I media, and 500 μl of the final mixture was added to each well of the 6-well plate, followed by cultivation at 37° C. for 4 to 6 hours. The medium was replaced with the original culture medium (DMEM/F12 medium supplemented with 10% FBS), followed by further cultivation overnight. […]
molecule,measurement,value
"modified GS protein: hamster glutamine synthetase (SEQ ID NO. 4) with glycine at position 299 substituted with arginine (protein, listed as Cricetulus longicaudatus) MATSASSHLNKNIKQMYLCLPQGEKVQAMYIWVDGTGEGLRCKTRTLDCEPKCVEELPEWNFDGSSTFQSEGSNSDMYLSPVAMFRDPFRRDPNKLVFCEVFKYNRKPAETNLRHSCKRIMDMVSNQHPWFGMEQEYTLMGTDGHPFGWPSNGFPGPQGPYYCGVGADKAYGRDIVEAHYRACLYAGVKITGTNAEVMPAQWEFQIGPCEGIRMGDHLWVARFILHRVCEDFGVIATFDPKPIPGNWNGAGCHTNFSTKAMREENGLKHIEEAIEKLSKRHRYHIRAYDPKGGLDNARRLTGFHETSNINDFSAGVANRSASIRIPRTVGQEKKGYFEDRRPSANCDPFAVTEAIVRTCLLNETGDEPFQYKN",sensitivity to GS inhibitors compared with wildtype GS protein,enhanced sensitivity
